Measurements: article PMC10421103, “Efficiency Assessment between Entrapment and Covalent Bond Immobilization of Mutant β-Xylosidase onto Chitosan Support” (Polymers, 2023)

Substrate: O=[N+]([O-])c1ccc(O[C@@H]2OC[C@@H](O)[C@H](O)[C@H]2O)cc1
Experiment: purified protein
Format: biochemical, Geobacillus stearothermophilus
Details: free enzyme, partially purified, 200 mM citrate-phosphate-glycine buffer pH 6.5, 50 °C, 0.22–2.00 mM substrate

B1: XynB2^Y509E (Geobacillus stearothermophilus; Y509E) (protein)
chain: MATNLFFNAHHSPVGAFASFTLGFPGKSGGLDLELARPPRQNVFIGVESPHEPGLYHILPFAETAGEDESKRYDIENPDPNPQKPNILIPFAKERIEREFRVATDTWKAGDLTLTIYSPVKAVPDPETASEEELKLALVPAVIVEMTIDNTNGTRTRRAFFGFEGTDPYTSMRRIDDTCPQLRGVGQGRILGIASKDEGVRSALHFSMEDILTATLEENWTFGLGKVGALIADVPAGEKKTYQFAVCFYRGGCVTAGMDASYFYTRFFHNIEEVGLYALEQAEVLKEQAFRSNELIEKEWLSDDQKFMMAHAIRSYYGNTQLLEHEGKPIWVVNEGEYRMMNTFDLTVDQLFFELKMNPWTVKNVLDFYVERYSYEDRVRFPGDETEYPGGISFTHDMGVANTFSRPHYSSYELYGISGCFSHMTHEQLVNWVLCAAVYIEQTKDWAWRDRRLTILEQCLESMVRRDHPDPEKRNGVMGLDSTRTMGGAEITTYDSLDVSLGQARNNLELAGKCWAAYVALEKLFRDVGKEELAALAREQAEKCAATIVSHVTEDGYIPAVMGEGNDSKIIPAIEGLVFPYFTNCHEALREDGRFGDYIRALRQHLQYVLREGICLFPDGGWKISSTSNNSWLSKIYLCQFIARRILGWEWDEQGKRADAAHVAWLTHPTLSIWSWSDQIIAGEISGSKYYPRGVTSILWLEEGE
notes: recombinant in E. coli C43 from plasmid pJAVI100 (xynB2 with Y509E); partially purified by heat treatment 45 °C and dialysis; GH52
Km: 900 ± 100 µM | Vmax: 0.0011 µmol/min
